B2: His-tagged MH2 domain of SMAD4 (I314-Q549) (domain or fragment, UniProt Q13485 314-549, looked up)
chain: ISNHPAPEYWCSIAYFEMDVQVGETFKVPSSCPIVTVDGYVDPSGGDRFCLGQLSNVHRTEAIERARLHIGKGVQLECKGEGDVWVRCLSDHAVFVQSYYLDREAGRAPGDAVHKIYPSAYIKVFDLRQCHRQMQQQAATAQAAAAAQAAAVAGNIPGPGSVGGIAPAISLSAAAGIGVDDLRRLCILRMSFVKGWGPDYPRQSIKETPCWIEIHLHRALQLLDEVLHTMPIADPQ
notes: SMAD4, MH2 domain, residues I314-Q549; Cloned in pNIC28Bsa4; also called ^HisSMAD4; not shown: His6, N-terminal, kept

In test [1] the target is Strep II-tagged MH2 domain of SMAD3 (S423E, S425D), E145-D425. Nature of the test: SEC; gel filtration of the single proteins in buffer A (Superdex 200 for SMAD4 and SnoN constructs, Sephacryl 300 for SMAD3); oligomeric state from the retention volume. On the technique in general: SEC sorts molecules by how far they enter the pores of the column.
For the next test, the target named is T1, SnoN (M1-S356), untagged (UniProt P12757-1 1-356).
T1 construct: Cloned in pNIC28Bsa4; the asterisk marks the TEV cut, so SM probably remains at the N-terminus after cleavage; also called truncated SnoN (M1-S356, 38.6 kDa); not shown: His6, N-terminal, cleaved
T1 sequence (looked up): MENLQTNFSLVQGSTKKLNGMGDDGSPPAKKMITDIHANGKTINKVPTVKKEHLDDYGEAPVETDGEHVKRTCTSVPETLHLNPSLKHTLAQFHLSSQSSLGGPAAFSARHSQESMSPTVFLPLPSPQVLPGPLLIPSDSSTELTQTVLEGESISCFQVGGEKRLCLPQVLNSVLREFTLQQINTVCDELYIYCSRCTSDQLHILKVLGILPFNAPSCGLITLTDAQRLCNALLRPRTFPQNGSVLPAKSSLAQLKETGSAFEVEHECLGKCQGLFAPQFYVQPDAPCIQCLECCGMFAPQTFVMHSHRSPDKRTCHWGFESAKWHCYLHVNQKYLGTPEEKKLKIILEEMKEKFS
Nature of the test: fluorescence labelling of cysteines (IRDye 800CW maleimide) and gel scanning; Ni-NTA eluate of the isolated SnoN-SMAD3-SMAD4 complex, boiled in 1% SDS, labelled, SDS-PAGE, near-infrared imaging; three measurements.

Test [2] addresses B2. Briefly: SPR; BIAcore 2000; SMAD4 (I314-Q549) amine-coupled on CM5 (about 1300 RU); SnoN SAND domain 0-500 nM injected; 10 mM HEPES pH 7.4, 150 mM NaCl, 0.005% TWEEN-20, 0.5 mM TCEP; room temperature; one-step binding model. Particulars: both partners purified. (SPR reads the build-up and loss of mass on a sensor chip optically.)
The target of test [3] is B2. Nature of the test: crystal structure; SnoN SAND domain with SMAD4 MH2 domain, complex reconstituted 1:1; sitting drop, 2.8-3.3 M NaCl, 0.1 M Bis-Tris pH 5.5, 20 °C; 2.6 Å.

“Strep II-tagged MH2 domain of SMAD3 (S423E, S425D), E145-D425 (domain or fragment)”: the stoichiometry N (usually the number of molecules, sites or subunits per partner or assembly) in test [1] worked out at 3. Further, in the test with SnoN (M1-S356), untagged, the stoichiometry N (SMAD3 per SnoN) came out at 2.1.

B1: SnoN SAND-domain (T238-S356) with C-terminal biotinylation sequence (domain or fragment, UniProt P12757-1 238-356, looked up)
chain: TFPQNGSVLPAKSSLAQLKETGSAFEVEHECLGKCQGLFAPQFYVQPDAPCIQCLECCGMFAPQTFVMHSHRSPDKRTCHWGFESAKWHCYLHVNQKYLGTPEEKKLKIILEEMKEKFS
notes: SnoN, SAND domain, residues T238-S356; Cloned in pNicBio3 for the SPR analysis; In the SPR it was the analyte, SMAD4 was amine-coupled; also called SnoN (T238-S356)
Take B1: in test [2], binding was characterised by a dissociation constant (Kd) of 1100 nM, the koff (usually a measure of how fast the partners let go of each other) came to 0.129 s⁻¹ and the kon (usually the rate constant with which the complex forms) amounted to 120000 M⁻¹ s⁻¹.

Take B2: the stoichiometry N in test [3] was 3; with SnoN (M1-S356), untagged (both partners purified), 1.2 SMAD4 per SnoN.

The record behind these values is paper PMC5387736, “SnoN Stabilizes the SMAD3/SMAD4 Protein Complex” (Scientific Reports, 2017).
